Experiment: label from the status in PepcDB records

Sequence | protein production
MSLARQVTAFNTGWQFKKGPFATDPMRAASQWDGKWETVEIPHTWNAMDMQVQSGSFYEGAGYYRKTQFFPHDLEGKRVFLRFEGVGACAEVYVNGKLAGTHKGGYSAFACEIGTALKLGAENEIIVKADNKARPDVIPVNQNLFGVYGGIYRPVWLIVTEQNNITVTDCASPGVYITQKDVSKKSADITVKVKLDNAGLQPAAVTLENTIYTQEGQKVGTHSRSFDLSPQGTQTYLSTFKLKNPHLWQGRKDPYLYKVVCRLMADGKVIDEVVQPLGVRKYEIVAGKGFFLNGEKYSMYGVTRHQDWWGLGSALKNEHHDFDLAAIMDVGATTVRFAHYQQSDYLYSRCDTLGLIIWAEIPCVNRVTGYETENAQSQLRELIRQSFNHPSIYVWGLHNEVYQPHEYTAALTRSLHDLAKTEDPDRYTVSVNGYGHMDHPVNLNADIQGMNRYFGWYEKKIQDIKPWVEQLEKDYPYQKLMLTEYGADANLAHQTEYLGDALNWGKPFYPETFQTKTHEYQWSIIKDHPYIIASYLWNMFDFAVPMWTRGGVPARNMKGLITFDRKTKKDSYFWYKANWSEEPVLYLTQRRNADREKRTTAVTVYSNIGTPKVYLNGQELSGIRNGYTDVHYVFDNVSLADGKNILKAVVSTKGKEYTDEIEWNYSGEKNREIDSYENKNEHSGEGHHHHHH | not failed
MADVATKHPMEDEVKKTEASSLVGKLETDVEIKASADKFHHMFAGKPHHVSKASPGNIQGCDLHEGDWGTVGSIVFWNYVHDGEAKVAKERIEAVEPDKNLITFRVIEGDLMKEYKSFLLTIQVTPKPGGPGSIVHWHLEYEKISEEVAHPETLLQFCVEVSKEIDEHLLAEEEEVKTPETPSLVGKLETDVEIKASAEKFHHMFAGKPHHVSKASPGNIQGCDLHEGDWGQVGSIVFWNYVHDREAKVAKERIEAVEPNKNLITFRVIDGDLMKEYKSFLLTIQVTPKLGGPGSIVHWHLEYEKISEEVAHPETLLQFCVEVSKEIDEHLLAEE | failed
MKTHFVKLLTQPESAWVQIRSEEQRKPWQYLPHLLLWALVPALCLLIGVTQVGWSLVDAERVRLSLASAMQLALLLYLTALLGTVLMGGFIRWMSRPFEARPTLNQCVGFAAYTATPYFIAGISGLYPSRWLAVAALLVASAYASYLLLVGLPKFMYLNQERGRLYAASVWGVGLLVLVTILVSMILFWFNVLAPQYLRPLAAL | failed
MGLTKQYLRYVASAVFGVIGSQKGNIVFVTLRGEKGRYVAVPACEHVFIWDLRKGEKILILQGLKQEVTCLCPSPDGLHLAVGYEDGSIRIFSLLSGEGNVTFNGHKAAITTLKYDQLGGRLASGSKDTDIIVWDVINESGLYRLKGHKDAITQALFLREKNLLVTSGKDTMVKWWDLDTQHCFKTMVGHRTEVWGLVLLSEEKRLITGASDSELRVWDIAYLQEIEDPEEPDPKKIKGSSPGIQDTLEAEDGAFETDEAPEDRILSCRKAGSIMREGRDRVVNLAVDKTGRILACHGTDSVLELFCILSKKEIQKKMDKKMKKARKKAKLHSSKGEEEDPEVNVEMSLQDEIQRVTNIKTSAKIKSFDLIHSPHGELKAVFLLQNNLVELYSLNPSLPTPQPVRTSRITIGGHRSDVRTLSFSSDNIAVLSAAADSIKIWNRSTLQCIRTMTCEYALCSFFVPGDRQVVIGTKTGKLQLYDLASGNLLETIDAHDGALWSMSLSPDQRGFVTGGADKSVKFWDFELVKDENSTQKRLSVKQTRTLQLDEDVLCVSYSPNQKLLAVSLLDCTVKIFYVDTLKFFLSLYGHKLPVICMDISHDGALIATGSADRNVKIWGLDFGDCHKSLFAHDDSVMYLQFVPKSHLFFTAGKDHKIKQWDADKFEHIQTLEGHHQEIWCLAVSPSGDYVVSSSHDKSLRLWERTREPLILEEEREMEREAEYEESVAKEDQPAVPGETQGDSYFTGKKTIETVKAAERIMEAIELYREETAKMKEHKAICKAAGKEVPLPSNPILMAYGSISPSAYVLEIFKGIKSSELEESLLVLPFSYVPDILKLFNEFIQLGSDVELICRCLFFLLRIHFGQITSNQMLVPVIEKLRETTISKVSQVRDVIGFNMAGLDYLKRECEAKSEVMFFADATSHLEEKKRKRKKREKLILTLT | failed
MTNMRQVLKTDRLVLEPQSMARFDQWFAMERQRDEAGHRDLTEDQAWLRLCARQGMWDAYACGFYYLLDPVSGEMRGEAGFQFRRRGFGPGFDNHPEAAWAVASAHQGRGLAAEAMQALLAHHDRSSGRQRVVALIARSNLPSLRLAERLGFRGYSDVAFDGAAHLLLERAG | not failed
NVAYPLGEGLLSFAESLESQKIHFTTEVITSRIEPANRYVAEKLRITPGQDILYLERLRSIGDEKAMLIENRINIELCPGIVEIDFNQHNLFPTIESLSKRKIRYSESRYAARLIGNERGHFLDISEDAPVLHLEQLVFFSRELPVEFGNVWLKGNKYYLGTVLQRRELS | not failed
MSLTFSILAHDPETGAIGGAAATGSLCVGGWVLRGDLNAGMSASQGAAPSTFWGEEVLQHLRDGSHPEDAVNHVTSQDSGRAYRQLAAMDLLGNAAAFTGSENQDIKGSVTFASGIASGNMLGDNSVLGAMTEAFVASDLTFERRLLAALIAAEGAGSDFRGLLSAAMLVLHPDRPPVTLRIDYHPDNPIGALEQLYQKATTGDYADWARQVPVLSDKERILDEGHHHHHH | not failed
LQQQEEETYADACDEFLDPIMSTLMCDPVVLPSSRVTVDRSTIARHLLSDQTDPFNRSPLTMDQIRPNTELKEKIQRWLAERKQQ | not failed
MNKETVLYVVIALLVGILGTVLVVGVVNKQKPAPATAGIPAGGGSPVDYQQRIAEAEKVVANDPKNLQAWIQLGNDYFDTDQAQKAINAYGKALELDPTNANVLTDQGIMFKRVGWFDKAIANFEKAQQLDPKHLQSLYNLGVVYMSDLKQPAKAVKYWERYLELDPMGPNSQQIRTMLEEAKGMAQTPSPQGQLFRK | failed
MARMKARSGKGRRVARDTWKTKSWYEIRTPQSFGGDLLGTTPANDPSNLLGRVTETSLKDLTNDHSKHMVRLYFKVDGVAGNNATTQFVGHNTTREYLKSLVRRRRSKIVTITDIRTKDGYKIRVKAMVLTAVRARDHHKTDIRKKMEQIIVNMARNSTFPEFVQAMLLGGLGSKIYATCKRIMPMKRVEIYKSEVMEFGKSATPVVEAPAETEVKEEVKKEVVETQTE | failed
MSDINTVNLINQMKTLAAQAEGIKPDSGLNHASFSSVFQQALNQVNELSQTADSLKTRFEIGDPNVSLGEVMIASQKSNLGFEATLRVRNKLVQAYQDIMNMPV | failed
QHTEERELKKRLMNTARTVSEMTEVKEALARKKQTEAVRHAVEEIRMINEADYIVVMDMNHIRYTHPVSTSIGKKSEGADEEAAFAEHIYFSEAKGEIGTAVRAFYPVKDQDLNQIGVVLVGKTLPGIADILLHLKRD | not failed
MISFLLSLVLLIVGYFTYGKFVDKTFGTNDSIETPAESMADGVDYVPMSWPRIFLIQFLNIAGLGPIFGAIAGALWGPVAFLWIVFGCIFAGAVHDYFTGVLSIRNKGVSVAELVGKYLGEIPRKIMVIFSVVLLILVGVVFLTGPADLLKTLTGIDRDIFIVIIVVYYIAATVLPVDKVIGKIYPIFGLCLLIMAVGIGAGIVIEGYNIPEIQLANFHPEGTPIFPFLFITIACGAISGFHATQSPIMARCVKKESEARKVFYGAMIAEGVIALVWAAAAMSFFGDTNGLQEILKAGGPATVVNTISNTVMGKVGAVLAILGVVACPISSGDTAFRSARLTIADAFKLKQDKVIDRFKIAIPLFVVGIALTFIDFGIIWRYFSWSNQTLAMIMLWAASAYMLKAHNNYWITLVPAVFMSAVTCSYILQAPEGFRLNATFSNIAGVVFALVLFGIFIKYCKKENNENCEIVEIEEVKEVIKNK | failed
NGADVQVSNIDYRLSRKELQQLLQEAFARHGKVKSVELSPHTDYQLKAVVQMENLQDAIGAVNSLHRYKIGSKKILVSLATGA | not failed
MTTEIKKLDPDTAIDIAYDIFLEMAGENLDPADILLFNLQFEERGGVEFVETADDWEEEIGVLIDPEEYAEVWVGLVNEQDEMDDVFAKFLISHREEDREFHVIWKK | not failed
MTNTHEINALKKYVRATNFLATSQIYLKQNVLHKRPLAHSDIKPRLLGHWGTCPGINFVYANINRLIVKHNRPFIYLVGPGHGFPAVQANLFIEGSLSHFYPETIPYNETGIEDICKKFSAAYGYPSHANPEAPGQILEGGELGYSLSVGWGAVLDNPDLIATVLVGDGESETGPLAASWYANRLVSPATNGAVLPIVHINGYKISGPTRMGRMSHEELDLEFRGLGYHPIIVDSEAEEDVYIQMATAMDTAYSMINDIQTRARKGEDIVK | failed

Source: a protein production outcome set (Wang et al. 2014)
